These results are taken from patent US12714679B2, “Fullerenes to treat diseases and conditions” (The Cleveland Clinic Foundation, priority 2018, dated 2026).

Series [1] is described as follows: Lead acetate (PbA/PbS) assay, catalytic H2S production from cysteine. The class given is biochemical. On the procedure: Further work was conducted as follows with regard to the catalytic production of H2S by PHFs. PHF (SJJR; 10 mg/mL) was added to a mixture of L-cysteine (10 mM) and […] (PLP; 1 mM) in a 96-well plate and then covered with a blotting paper saturated with lead acetate. After 24 hours, the lead acetate paper was removed and scanned. The lead sulfide dots were analyzed for average integrated density using ImageJ. After every 24 hours, the wells were replenished with L-cysteine (10 mM) and covered with the lead acetate paper and the lead sulfide dots were analyzed.
Lead acetate assay: The kinetics and catalysis coefficients for PHF catalyzed H2S production were determined using lead acetate assay (PbA/PbS assay) as generally described in Hine and Mitchell, “Endpoint and Kinetic Measurement of Hydrogen Sulfide Production Capacity in Tissue Extracts” Bio-Protocol, 7 (13), e2382, 2017). Briefly: Reaction mixtures (150 μL/well) containing PHF or enzyme (CGL), enzyme co-factor (PLP) and substrate (e.g., cysteine) were tested in 96-well plates Immediately after addition of catalyst, 96-well plates were covered with lead acetate saturated paper and placed inside a 37° C. cell culture incubator. At a predetermined time point, the lead acetate paper was removed and scanned, and the lead sulfide dots analyzed with ImageJ using the IntDen function. A calibration curve was prepared with different concentrations of sodium hydrosulfide plotted against the integrated density obtained on lead acetate/lead sulfide paper. The presence of pyruvic acid after reaction was confirmed in a preliminary experiment by liquid chromatography—mass spectroscopy.
To determine the steady-state kinetic parameters experiments were carried out with different initial substrate concentrations. The initial (linear) slope from the graph of H2S concentration versus time at each substrate concentration was used to determine the reaction velocity, which was plotted against initial cysteine concentrations to obtain Michaelis-Menten curves (FIGS. 5 and 6). Least squares non-linear fitting was used to determine values of Km and Vmax from the equation v=Vmax [S]/(Km+[S]).

Series [2] in a line: HR-TEM size. In kind it is physicochemical. From the text:
FIG. 3: Panel A) a hypothetical schematic illustration of the breakdown of cysteine to hydrogen sulfide, ammonia and pyruvic acid. While the present disclosure is not limited to any particular mechanism and an understanding of the mechanism is not necessary to practice the invention, it is believed that polyhydroxy fullerenes (PHF) mimic carbon-sulfur lyases. It was found during work conducted during development of embodiments herein that PHFs catalyze the breakdown of cysteine under physiological conditions. Panel B) HR-TEM image of PHF (C60(OH)9O7Na6) showing a cluster size of 3.4±0.5 nm. Panel C) HR-TEM image of CGL showing a molecular size of 4.1±0.4 nm.

Setting [3] is: Without PLP, substrate L-Cysteine.

Take `Cc1ncc(COP(=O)(O)O)c(C=O)c1O` [PLP, pyridoxal-5′-phosphate, reference compound]: in series [1] (PLP with cysteine, no PHF, in 24 hours), the H2S produced was found to be 0.024 mM.

B1: cystathionine γ-lyase (protein, UniProt P32929 1-405, looked up)
Cystathionine gamma-lyase: MQEKDASSQGFLPHFQHFATQAIHVGQDPEQWTSRAVVPPISLSTTFKQGAPGQHSGFEYSRSGNPTRNCLEKAVAALDGAKYCLAFASGLAATVTITHLLKAGDQIICMDDVYGGTNRYFRQVASEFGLKISFVDCSKIKLLEAAITPETKLVWIETPTNPTQKVIDIEGCAHIVHKHGDIILVVDNTFMSPYFQRPLALGADISMYSATKYMNGHSDVVMGLVSVNCESLHNRLRFLQNSLGAVPSPIDCYLCNRGLKTLHVRMEKHFKNGMAVAQFLESNPWVEKVIYPGLPSHPQHELVKRQCTGCTGMVTFYIKGTLQHAEIFLKNLKLFTLAESLGGFESLAELPAIMTHASVLKNDRDVLGISDTLIRLSVGLEDEEDLLEDLDQALKAAHPPSGSHS
notes: enzyme producing H2S from cysteine, comparator catalyst
Broadly, the Km is the concentration of substrate that gives half-maximal velocity. By Vmax is commonly meant the top rate of the reaction or transport when substrate is in excess. On to B1, for which the “H2S production at room temperature” value in series [1] (PBS) is “produced H2S only in presence of PLP”. Besides, the “H2S production at 4° C.” value in series [1] (PBS, presence or absence of PLP) was “No H2S was produced”. Moreover, in series [1] (With PLP, substrate L-Cysteine), the KCAT was determined as 130 s⁻¹, the Km was determined as 25.4 mM and the Vmax was 2.9 nM/s. For the same molecule, in series [1] (setting [3]), the KCAT stood at 5800 s⁻¹ and the Vmax is 1.3 nM/s. In series [2], this molecule showed a molecular size of 4.1±0.4 nm.
